Results on 1 substance are retold here after article PMC8709174.

In this test the target is Aplysia californica acetylcholine binding protein (Ac-AChBP) (Aplysia californica). The test is described as follows: crystal structure.

With α-conotoxin RgIA (peptide), the stoichiometry N (RgIA per Ac-AChBP pentamer) was determined as 5.
